Non-standard residues stand in square brackets, D forms with d. *: point of attachment. Phe(F5) = N[C@@H](Cc1c(F)c(F)c(F)c(F)c1F)C(=O)O; Desaminotyrosyl = O=C(CCc1ccc(O)cc1)*; hArg = N=C(N)NCCCC[C@H](N)C(=O)O; Agmatine = N=C(N)NCCCCN*; Nle = CCCC[C@H](N)C(=O)O; Orn = NCCC[C@H](N)C(=O)O; Abu = CC[C@H](N)C(=O)O; GABA = NCCCC(=O)O
T1: GHRH receptor (membrane receptors of human anterior pituitary cells) (human) (UniProt Q02643)
T1 sequence (looked up): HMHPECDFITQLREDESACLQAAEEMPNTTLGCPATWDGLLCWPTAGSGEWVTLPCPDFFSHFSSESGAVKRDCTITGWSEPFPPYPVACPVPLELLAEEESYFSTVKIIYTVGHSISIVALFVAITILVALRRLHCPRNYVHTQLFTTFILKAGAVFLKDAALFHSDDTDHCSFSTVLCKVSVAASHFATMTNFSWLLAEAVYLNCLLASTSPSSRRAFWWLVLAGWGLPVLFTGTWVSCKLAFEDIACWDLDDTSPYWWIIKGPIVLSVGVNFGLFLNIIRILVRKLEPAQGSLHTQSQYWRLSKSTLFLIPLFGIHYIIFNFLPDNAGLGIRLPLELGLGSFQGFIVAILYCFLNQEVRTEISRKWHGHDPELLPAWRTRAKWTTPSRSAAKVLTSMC

T2: GHRH receptor (membrane receptors of human anterior pituitary cells) (human, UniProt Q02643 23-423)
T2 construct: whole, on cells; Native receptor in a membrane fraction of purchased normal human pituitaries, not intact cells; also called hGHRH receptor; human pituitary membrane homogenates
T2 sequence (looked up): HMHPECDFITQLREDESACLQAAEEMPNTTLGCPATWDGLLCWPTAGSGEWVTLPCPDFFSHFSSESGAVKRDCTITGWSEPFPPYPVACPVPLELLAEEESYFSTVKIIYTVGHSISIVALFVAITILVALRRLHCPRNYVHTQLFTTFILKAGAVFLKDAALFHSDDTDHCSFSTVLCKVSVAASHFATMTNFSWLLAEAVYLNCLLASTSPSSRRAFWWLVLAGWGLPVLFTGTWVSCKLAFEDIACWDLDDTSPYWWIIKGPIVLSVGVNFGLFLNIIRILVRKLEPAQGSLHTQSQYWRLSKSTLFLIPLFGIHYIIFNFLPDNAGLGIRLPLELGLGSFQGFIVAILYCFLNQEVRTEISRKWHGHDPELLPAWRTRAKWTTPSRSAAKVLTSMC

B1: P-29702 [Dat^1, D-Ala^2, Orn^12, Abu^15, Orn^21, Nle^27, Gln-Gab^30]hGHRH(1-30)NH2 (peptide)
peptide: [Desaminotyrosyl][dA]DAIFTNSYR[Orn]VL[Abu]QLSAR[Orn]LLQDI[Nle]SRQ[GABA]-NH2
SMILES: CCCC[C@H](NC(=O)[C@@H](NC(=O)[C@H](CC(=O)O)NC(=O)[C@H](CCC(N)=O)NC(=O)[C@H](CC(C)C)NC(=O)[C@H](CC(C)C)NC(=O)[C@H](CCCN)NC(=O)[C@H](CCCNC(=N)N)NC(=O)[C@H](C)NC(=O)[C@H](CO)NC(=O)[C@H](CC(C)C)NC(=O)[C@H](CCC(N)=O)NC(=O)[C@H](CC)NC(=O)[C@H](CC(C)C)NC(=O)[C@@H](NC(=O)[C@H](CCCN)NC(=O)[C@H](CCCNC(=N)N)NC(=O)[C@H](Cc1ccc(O)cc1)NC(=O)[C@H](CO)NC(=O)[C@H](CC(N)=O)NC(=O)[C@@H](NC(=O)[C@H](Cc1ccccc1)NC(=O)[C@@H](NC(=O)[C@H](C)NC(=O)[C@H](CC(=O)O)NC(=O)[C@@H](C)NC(=O)CCc1ccc(O)cc1)[C@@H](C)CC)[C@@H](C)O)C(C)C)[C@@H](C)CC)C(=O)N[C@@H](CO)C(=O)N[C@@H](CCCNC(=N)N)C(=O)N[C@@H](CCC(N)=O)C(=O)NCCCC(N)=O
notes: also called MR-702; Peptide 29702
B2: P-23254 [Dat^1, D-Ala^2, Thr^8, Orn^12, Abu^15, Orn^21, Nle^27, Asp^28, Har^30]hGHRH(1-30)NH2 (peptide)
peptide: [Desaminotyrosyl][dA]DAIFTTSYR[Orn]VL[Abu]QLSAR[Orn]LLQDI[Nle]DR[hArg]-NH2
SMILES: CCCC[C@H](NC(=O)[C@@H](NC(=O)[C@H](CC(=O)O)NC(=O)[C@H](CCC(N)=O)NC(=O)[C@H](CC(C)C)NC(=O)[C@H](CC(C)C)NC(=O)[C@H](CCCN)NC(=O)[C@H](CCCNC(=N)N)NC(=O)[C@H](C)NC(=O)[C@H](CO)NC(=O)[C@H](CC(C)C)NC(=O)[C@H](CCC(N)=O)NC(=O)[C@H](CC)NC(=O)[C@H](CC(C)C)NC(=O)[C@@H](NC(=O)[C@H](CCCN)NC(=O)[C@H](CCCNC(=N)N)NC(=O)[C@H](Cc1ccc(O)cc1)NC(=O)[C@H](CO)NC(=O)[C@@H](NC(=O)[C@@H](NC(=O)[C@H](Cc1ccccc1)NC(=O)[C@@H](NC(=O)[C@H](C)NC(=O)[C@H](CC(=O)O)NC(=O)[C@@H](C)NC(=O)CCc1ccc(O)cc1)[C@@H](C)CC)[C@@H](C)O)[C@@H](C)O)C(C)C)[C@@H](C)CC)C(=O)N[C@@H](CC(=O)O)C(=O)N[C@@H](CCCNC(=N)N)C(=O)N[C@@H](CCCCNC(=N)N)C(N)=O
notes: also called Peptide 23254
B3: P-25502 [Dat^1, D-Ala^2, Fpa5^6, Orn^12, Abu^15, Orn^21, Nle^27, Gab^30]hGHRH(1-30)NH2 (peptide)
peptide: [Desaminotyrosyl][dA]DAI[Phe(F5)]TNSYR[Orn]VL[Abu]QLSAR[Orn]LLQDI[Nle]SR[GABA]-NH2
SMILES: CCCC[C@H](NC(=O)[C@@H](NC(=O)[C@H](CC(=O)O)NC(=O)[C@H](CCC(N)=O)NC(=O)[C@H](CC(C)C)NC(=O)[C@H](CC(C)C)NC(=O)[C@H](CCCN)NC(=O)[C@H](CCCNC(=N)N)NC(=O)[C@H](C)NC(=O)[C@H](CO)NC(=O)[C@H](CC(C)C)NC(=O)[C@H](CCC(N)=O)NC(=O)[C@H](CC)NC(=O)[C@H](CC(C)C)NC(=O)[C@@H](NC(=O)[C@H](CCCN)NC(=O)[C@H](CCCNC(=N)N)NC(=O)[C@H](Cc1ccc(O)cc1)NC(=O)[C@H](CO)NC(=O)[C@H](CC(N)=O)NC(=O)[C@@H](NC(=O)[C@H](Cc1c(F)c(F)c(F)c(F)c1F)NC(=O)[C@@H](NC(=O)[C@H](C)NC(=O)[C@H](CC(=O)O)NC(=O)[C@@H](C)NC(=O)CCc1ccc(O)cc1)[C@@H](C)CC)[C@@H](C)O)C(C)C)[C@@H](C)CC)C(=O)N[C@@H](CO)C(=O)N[C@@H](CCCNC(=N)N)C(=O)NCCCC(N)=O
notes: also called MR-502; Peptide 25502
B4: P-23256 [Dat^1, D-Ala^2, Ala^8, Orn^12, Abu^15, Orn^21, Nle^27, Asp^28, Har^30]hGHRH(1-30)NH2 (peptide)
peptide: [Desaminotyrosyl][dA]DAIFTASYR[Orn]VL[Abu]QLSAR[Orn]LLQDI[Nle]DR[hArg]-NH2
SMILES: CCCC[C@H](NC(=O)[C@@H](NC(=O)[C@H](CC(=O)O)NC(=O)[C@H](CCC(N)=O)NC(=O)[C@H](CC(C)C)NC(=O)[C@H](CC(C)C)NC(=O)[C@H](CCCN)NC(=O)[C@H](CCCNC(=N)N)NC(=O)[C@H](C)NC(=O)[C@H](CO)NC(=O)[C@H](CC(C)C)NC(=O)[C@H](CCC(N)=O)NC(=O)[C@H](CC)NC(=O)[C@H](CC(C)C)NC(=O)[C@@H](NC(=O)[C@H](CCCN)NC(=O)[C@H](CCCNC(=N)N)NC(=O)[C@H](Cc1ccc(O)cc1)NC(=O)[C@H](CO)NC(=O)[C@H](C)NC(=O)[C@@H](NC(=O)[C@H](Cc1ccccc1)NC(=O)[C@@H](NC(=O)[C@H](C)NC(=O)[C@H](CC(=O)O)NC(=O)[C@@H](C)NC(=O)CCc1ccc(O)cc1)[C@@H](C)CC)[C@@H](C)O)C(C)C)[C@@H](C)CC)C(=O)N[C@@H](CC(=O)O)C(=O)N[C@@H](CCCNC(=N)N)C(=O)N[C@@H](CCCCNC(=N)N)C(N)=O
notes: also called Peptide 23256
B5: P-20350 [Dat^1, D-Ala^2, Gln^8, Orn^12, Abu^15, Orn^21, Nle^27, Asp^28, Agm^29]hGHRH(1-29)NH2 (peptide)
peptide: [Desaminotyrosyl][dA]DAIFTQSYR[Orn]VL[Abu]QLSAR[Orn]LLQDI[Nle]D[Agmatine]
SMILES: CCCC[C@H](NC(=O)[C@@H](NC(=O)[C@H](CC(=O)O)NC(=O)[C@H](CCC(N)=O)NC(=O)[C@H](CC(C)C)NC(=O)[C@H](CC(C)C)NC(=O)[C@H](CCCN)NC(=O)[C@H](CCCNC(=N)N)NC(=O)[C@H](C)NC(=O)[C@H](CO)NC(=O)[C@H](CC(C)C)NC(=O)[C@H](CCC(N)=O)NC(=O)[C@H](CC)NC(=O)[C@H](CC(C)C)NC(=O)[C@@H](NC(=O)[C@H](CCCN)NC(=O)[C@H](CCCNC(=N)N)NC(=O)[C@H](Cc1ccc(O)cc1)NC(=O)[C@H](CO)NC(=O)[C@H](CCC(N)=O)NC(=O)[C@@H](NC(=O)[C@H](Cc1ccccc1)NC(=O)[C@@H](NC(=O)[C@H](C)NC(=O)[C@H](CC(=O)O)NC(=O)[C@@H](C)NC(=O)CCc1ccc(O)cc1)[C@@H](C)CC)[C@@H](C)O)C(C)C)[C@@H](C)CC)C(=O)N[C@@H](CC(=O)O)C(=O)NCCCCNC(=N)N
notes: also called Peptide 20350; MR-350
B6: JI-38 [Dat^1, Gln^8, Orn^12,21, Abu^15, Nle^27, Asp^28, Agm^29]hGHRH(1-29)NH2 (peptide)
peptide: [Desaminotyrosyl]ADAIFTQSYR[Orn]VL[Abu]QLSAR[Orn]LLQDI[Nle]D[Agmatine]
SMILES: CCCC[C@H](NC(=O)[C@@H](NC(=O)[C@H](CC(=O)O)NC(=O)[C@H](CCC(N)=O)NC(=O)[C@H](CC(C)C)NC(=O)[C@H](CC(C)C)NC(=O)[C@H](CCCN)NC(=O)[C@H](CCCNC(=N)N)NC(=O)[C@H](C)NC(=O)[C@H](CO)NC(=O)[C@H](CC(C)C)NC(=O)[C@H](CCC(N)=O)NC(=O)[C@H](CC)NC(=O)[C@H](CC(C)C)NC(=O)[C@@H](NC(=O)[C@H](CCCN)NC(=O)[C@H](CCCNC(=N)N)NC(=O)[C@H](Cc1ccc(O)cc1)NC(=O)[C@H](CO)NC(=O)[C@H](CCC(N)=O)NC(=O)[C@@H](NC(=O)[C@H](Cc1ccccc1)NC(=O)[C@@H](NC(=O)[C@H](C)NC(=O)[C@H](CC(=O)O)NC(=O)[C@H](C)NC(=O)CCc1ccc(O)cc1)[C@@H](C)CC)[C@@H](C)O)C(C)C)[C@@H](C)CC)C(=O)N[C@@H](CC(=O)O)C(=O)NCCCCNC(=N)N
notes: Non-coded residues replacing another residue are written X

Legend:
[1] = target: T1, GHRH receptor (membrane receptors of human anterior pituitary cells) (human); test: competition with [His1,125I-Tyr10,Nle27]hGHRH(1-32)NH2, human pituitary membranes
[2] = target: T2, GHRH receptor (membrane receptors of …); test: competition with 125I-[His1,Nle27]hGHRH(1-32)NH2, human pituitary membranes
Source text: Normal human pituitary was purchased from the National Hormone and Peptide Program (UCLA Medical Center, Torrance, Calif.).

[3] = target: T2, GHRH receptor (membrane receptors of …); test: competition with 125I-JV-1-42, human pituitary membranes
Source text: (§1) Normal human pituitaries were purchased from the National Hormone and Peptide Program (A. F. Parlow, Los Angeles, County Harbor-UCLA Medical Center, Torrance, Calif.).

[4] = target: T2, GHRH receptor (membrane receptors of …); test: as above; remark: listed apart in the source
Protocol: as §1
The final binding affinities were expressed as IC₅₀ values and were calculated by using the LIGAND PC computerized curve-fitting program of Munson and Rodbard as modified by McPherson.

[5] = target: T2, GHRH receptor (membrane receptors of …); test: competition with [His1,125I-Tyr10,Nle27]hGHRH(1-32)NH2, human pituitary membranes
Source text: Normal human pituitaries were purchased from the National Hormone and Peptide Program (A. F. Parlow, Los Angeles, County Harbor—UCLA Medical Center, Torrance, Calif.).

IC50 [1] [nM]	Relative affinity (Binding potency) vs GHRH (GHRH(1-29) = 1) [1]	IC50 [2] [nM]	Relative affinity (Binding potency) compared to JI-38 [2] [JI-38 = 1]	Relative affinity (Binding potency) compared to hGHRH(1-29) [2]	IC50 [3] [nM]	Relative affinity (Binding potency) vs JI-38 [3] [JI-38 = 1]	IC50 [4] [nM]	Relative affinity (Binding potency) vs GHRH [4]	Relative affinity (Binding potency) vs JI-38 [4] [JI-38 = 1]	IC50 [5] [nM]	Relative affinity (Binding potency) vs GHRH [5]	Relative affinity (Binding potency) vs JI-38 [5] [JI-38 = 1]	Molecule
1.82	3.25												JI-36 (peptide)
1.37	4.32												JI-34 (peptide)
		3.3	0.83	2.31 hGHRH(1-29)NH2 = 1	0.86	5.06	0.05	81.2 GHRH(1-29) = 1	34.2				B1
										0.07	84.5 GHRH(1-29) = 1	27.8	B2
		2.16	1.27	3.54 hGHRH(1-29)NH2 = 1	0.33	13.2	0.07	58 GHRH(1-29) = 1	24.4				B3
										0.04	148 GHRH(1-29) = 1	48.7	B4
					0.52	8.37	0.04	102 GHRH(1-29) = 1	42.7				B5
		2.74	1	2.79 hGHRH(1-29)NH2 = 1	4.35	1	1.71	2.4 GHRH(1-29) = 1	1	1.95	3.03 GHRH(1-29) = 1	1	B6
